The record followed here is publication PMC13389011, “Expedient single-round selection of hyper-modified aptamer targeting insulin receptor from over-represented dually nucleobase-modified DNA libraries”.

B1: HIR-6_N (ssDNA)
DNA: CATGACGCTCACTGTATCTCGCGTTTAACGTAACAGCGATGTCTCTCATGATGTC
B2: HIR-8_N (ssDNA)
DNA: B1 DNA with G23C, C34G
B3: HIR-6_T5 (XNA)
DNA: ACTGTATCTCGCGUUUAACGUAACAGCGAUGUCUCUCAUGAUGUC
modifications: DNA backbone; 7-deaza-7-(indolyl-ethyl)-dA (dAAIn) at 17,18,22,23,25,29,38,41; 5-(phenyl-ethynyl)-dU (dUEPh) at 14,15,16,21,30,32,34,36,39,42,44
B4: HIR-6_T2 (XNA)
DNA: CATGACGCTCACTGTATCTCGCGUUUAACGUAACAGCGAUGUCUC
modifications: DNA backbone; 7-deaza-7-(indolyl-ethyl)-dA (dAAIn) at 27,28,32,33,35,39; 5-(phenyl-ethynyl)-dU (dUEPh) at 24,25,26,31,40,42,44
B5: HIR-6_T9 (XNA)
DNA: CGCTCACTGTATCTCGCGUUUAACGUAACAGCGAUGUCUC
modifications: DNA backbone; 7-deaza-7-(indolyl-ethyl)-dA (dAAIn) at 22,23,27,28,30,34; 5-(phenyl-ethynyl)-dU (dUEPh) at 19,20,21,26,35,37,39
B6: HIR-6_M2 (XNA)
DNA: B1 DNA with T24U, T25U, T26U, T31U, T40U
modifications: DNA backbone; 7-deaza-7-(indolyl-ethyl)-dA (dAAIn) at 27,28,32,33,35,39; 5-(phenyl-ethynyl)-dU (dUEPh) at 24,25,26,31,40
B7: HIR-6_T6 (XNA)
DNA: TATCTCGCGUUUAACGUAACAGCGAUGUCUCUCAUGAUGUC
modifications: DNA backbone; 7-deaza-7-(indolyl-ethyl)-dA (dAAIn) at 13,14,18,19,21,25,34,37; 5-(phenyl-ethynyl)-dU (dUEPh) at 10,11,12,17,26,28,30,32,35,38,40
B8: HIR-6_T1 (XNA)
DNA: CATGACGCTCACTGTATCTCGCGUUUAACGUAACAGCGAUGUCUCUCAUG
modifications: DNA backbone; 7-deaza-7-(indolyl-ethyl)-dA (dAAIn) at 27,28,32,33,35,39,48; 5-(phenyl-ethynyl)-dU (dUEPh) at 24,25,26,31,40,42,44,46,49
B9: HIR-6_T8 (XNA)
DNA: ACTGTATCTCGCGUUUAACGUAACAGCGAU
modifications: DNA backbone; 7-deaza-7-(indolyl-ethyl)-dA (dAAIn) at 17,18,22,23,25,29; 5-(phenyl-ethynyl)-dU (dUEPh) at 14,15,16,21,30
B10: HIR-6_T7 (XNA)
DNA: CGCTCACTGTATCTCGCGUUUAACGUAACAGCGAU
modifications: DNA backbone; 7-deaza-7-(indolyl-ethyl)-dA (dAAIn) at 22,23,27,28,30,34; 5-(phenyl-ethynyl)-dU (dUEPh) at 19,20,21,26,35
B11: HIR-6_T3 (XNA)
DNA: CATGACGCTCACTGTATCTCGCGUUUAACGUAACAGCGAU
modifications: DNA backbone; 7-deaza-7-(indolyl-ethyl)-dA (dAAIn) at 27,28,32,33,35,39; 5-(phenyl-ethynyl)-dU (dUEPh) at 24,25,26,31,40
B12: HIR-6_T4 (XNA)
DNA: CGCTCACTGTATCTCGCGUUUAACGUAACAGCGAUGUCUCUCAUGAUGUC
modifications: DNA backbone; 7-deaza-7-(indolyl-ethyl)-dA (dAAIn) at 22,23,27,28,30,34,43,46; 5-(phenyl-ethynyl)-dU (dUEPh) at 19,20,21,26,35,37,39,41,44,47,49
B13: HIR-6 (XNA)
DNA: CATGACGCTCACTGTATCTCGCGUUUAACGUAACAGCGAUGUCUCUCAUGAUGUC
modifications: DNA backbone; 7-deaza-7-(indolyl-ethyl)-dA (dAAIn) at 27,28,32,33,35,39,48,51; 5-(phenyl-ethynyl)-dU (dUEPh) at 24,25,26,31,40,42,44,46,49,52,54

Positions count from the first letter of the chain named.

The target of one data set is Human insulin receptor ectodomain (HIR) (Homo sapiens, UniProt P06213-2 28-944). Kind of data set: FNBA; IB: PBS (1.5 mM KH2PO4, 8.1 mM Na2HPO4, 2.7 mM KCl, 137 mM NaCl) + 5 mM MgCl2, pH 7.4; MST +0.1% Pluronic F-127, 25 C; SPR 25 C; FNBA and BLI r.t. To be noted: protein: commercial; tags: His-tag; chain copies: 2; label: 5'-Cy5.
Chain of Human insulin receptor ectodomain (HIR) (Homo sapiens, UniProt P06213-2 28-944) (P06213 other isoform, or with tags, fused parts or gaps): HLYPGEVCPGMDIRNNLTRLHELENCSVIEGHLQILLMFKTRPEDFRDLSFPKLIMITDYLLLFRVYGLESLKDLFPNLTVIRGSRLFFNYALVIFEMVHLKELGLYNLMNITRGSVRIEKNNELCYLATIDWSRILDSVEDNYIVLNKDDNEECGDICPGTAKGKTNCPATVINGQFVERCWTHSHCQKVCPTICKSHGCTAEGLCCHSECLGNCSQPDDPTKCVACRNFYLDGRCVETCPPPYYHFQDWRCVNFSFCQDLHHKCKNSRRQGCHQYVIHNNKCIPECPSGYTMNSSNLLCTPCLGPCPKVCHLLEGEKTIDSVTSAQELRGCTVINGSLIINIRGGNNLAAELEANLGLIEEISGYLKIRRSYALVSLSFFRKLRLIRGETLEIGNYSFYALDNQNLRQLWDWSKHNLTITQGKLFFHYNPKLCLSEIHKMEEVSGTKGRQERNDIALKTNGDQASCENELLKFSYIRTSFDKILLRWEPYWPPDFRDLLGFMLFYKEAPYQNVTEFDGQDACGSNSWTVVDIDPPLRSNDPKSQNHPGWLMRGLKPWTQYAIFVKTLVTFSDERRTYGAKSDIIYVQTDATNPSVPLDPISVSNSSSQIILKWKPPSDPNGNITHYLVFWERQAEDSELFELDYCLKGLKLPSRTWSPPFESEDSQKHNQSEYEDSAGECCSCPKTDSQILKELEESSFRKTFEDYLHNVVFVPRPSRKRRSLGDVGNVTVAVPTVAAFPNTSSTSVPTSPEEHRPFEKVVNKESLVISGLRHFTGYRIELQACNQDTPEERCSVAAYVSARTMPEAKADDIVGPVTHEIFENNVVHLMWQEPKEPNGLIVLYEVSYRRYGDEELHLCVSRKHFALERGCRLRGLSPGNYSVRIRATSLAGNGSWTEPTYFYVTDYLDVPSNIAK
For B1, the binding result is given as “no binding”. Consider B2, for which the binding result was “no binding”.

The target of the next data set is Human insulin receptor ectodomain (HIR) (Homo sapiens, UniProt P06213-2;P06213-2 28-746;751-944). Kind of data set: fluorescent Ni-plate binding assay (FNBA); PBS (1.5 mM KH2PO4, 8.1 mM Na2HPO4, 2.7 mM KCl, 137 mM NaCl) with 5 mM MgCl2, pH 7.4; MST with 0.1% Pluronic F-127 at 25 C; FNBA at room temperature; high values mean tight binding. The note with it: protein: commercial; tags: His-tag; chain copies: 2;2; label: 5'-Cy5.
Chain of Human insulin receptor ectodomain (HIR) (Homo sapiens, UniProt P06213-2;P06213-2 28-746;751-944) (P06213 other isoform, or with tags, fused parts or gaps, chain 1 of 2): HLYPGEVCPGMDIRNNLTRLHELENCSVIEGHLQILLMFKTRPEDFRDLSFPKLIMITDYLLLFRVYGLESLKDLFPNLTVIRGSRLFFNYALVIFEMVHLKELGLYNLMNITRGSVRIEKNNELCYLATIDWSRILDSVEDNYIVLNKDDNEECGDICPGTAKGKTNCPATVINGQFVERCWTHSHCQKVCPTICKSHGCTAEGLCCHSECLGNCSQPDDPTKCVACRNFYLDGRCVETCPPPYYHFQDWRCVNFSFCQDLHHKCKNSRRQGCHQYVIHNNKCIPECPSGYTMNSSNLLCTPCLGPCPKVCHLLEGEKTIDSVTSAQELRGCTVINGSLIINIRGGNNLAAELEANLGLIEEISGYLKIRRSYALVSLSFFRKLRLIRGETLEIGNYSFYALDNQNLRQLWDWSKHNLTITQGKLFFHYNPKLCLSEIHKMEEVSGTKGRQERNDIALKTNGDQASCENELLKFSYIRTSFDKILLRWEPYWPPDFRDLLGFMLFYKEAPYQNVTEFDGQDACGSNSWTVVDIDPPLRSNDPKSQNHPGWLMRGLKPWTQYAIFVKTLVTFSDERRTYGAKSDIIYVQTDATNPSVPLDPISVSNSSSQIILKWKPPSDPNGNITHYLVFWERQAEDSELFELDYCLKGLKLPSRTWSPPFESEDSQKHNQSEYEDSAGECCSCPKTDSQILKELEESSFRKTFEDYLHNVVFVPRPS
Chain of Human insulin receptor ectodomain (HIR) (Homo sapiens, UniProt P06213-2;P06213-2 28-746;751-944) (P06213 763-956, chain 2 of 2): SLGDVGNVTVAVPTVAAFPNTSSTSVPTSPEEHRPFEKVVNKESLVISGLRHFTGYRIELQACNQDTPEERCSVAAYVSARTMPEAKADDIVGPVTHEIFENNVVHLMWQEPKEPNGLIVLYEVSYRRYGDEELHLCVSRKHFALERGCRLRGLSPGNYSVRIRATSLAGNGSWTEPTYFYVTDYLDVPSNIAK
On to B3, for which the binding signal stood at 45900 ± 733 a.u. fluorescence.

B4 came in with a binding signal of 30900 a.u. fluorescence.

In turn, B5 returned a binding signal of 24700 a.u. fluorescence.

Molecule B1 displayed a binding signal of 184 ± 176 a.u. fluorescence. B2 displayed a binding signal of 553 ± 165 a.u. fluorescence. Molecule B6 registered a binding signal of 28300 a.u. fluorescence. B7: the binding signal is 45500 a.u. fluorescence. Take B8: the binding signal amounted to 26300 a.u. fluorescence. Same read-out and setting: then B9, with 13400 a.u. fluorescence; and B10, with 16500 a.u. fluorescence; and B11, with 19900 a.u. fluorescence. Molecule B12 gave a binding signal of 44700 a.u. fluorescence.

The same data set, now with this note: protein: commercial; tags: His-tag; chain copies: 2;2; label: 5'-Cy5; hairpin, stem 18-22/36-40, A35 bulge.
B13: the binding signal worked out at 45000 ± 766 a.u. fluorescence.
